Test results published in article PMC10936178 (mBio, 2024).

B1: full-length Plasmodium vivax Sub1 (PvS1FL), recombinant, autocleaved at Asp202 (enzyme)
chain 1: GDILPNEGKKEKDDVHKIISELRFLQKVETILESSNMSVSDVEADANAYNPDRDAPKEELQKLQDQQETPSKQPNNLRNSPQKRAEKKESPGKNKKSLRLIVSENHATSPSFFEESLLQEDVVSFIQSKGKLSNLKNLKSMIIDLNSDMTDEELAEYISLLERKGALIESDKLVGAD
chain 2: DVSLASVKDAVRRGESSVNWGKLRSTMLEVPSGESPPSHAASSGSPFDDDDDLLSEAALHREEAHLAGSKTTKGYKFNDEYRNLQWGLDLARLDETQDLINANRVSVTKICVIDSGIDYNHPDLRNNIDVNVKELHGRKGVDDDSNGVVDDVYGANFVNNSGDPMDDNYHGTHVSGIISAVGNNGIGIVGVDGHSKLVICKALDQHKLGRLGDMFKCIDYCISRQAHMINGSFSFDEYSNIFNASVEHLRSLGILFFVSASNCAHDKLSKPDIAKCDLAVNHRYPPILSKTHNNVIAVANLKRDLDESYSLSVNSFYSNIYCQLAAPGTNIYSTTPMNNYRKLNGTSMASPHVAAIASIVRSINPNLTYLQIVEILRNAIVKLPSLTERVSWGGYVDILRAVNLAIDSKAAPYIKSHSWFRWKQGSRR
notes: Prodomain of P. vivax Sub1 up to the primary maturation site Asp202; Catalytic domain of P. vivax Sub1, from the residue after the primary maturation site Asp202 to the C-terminus

Columns and labels:
[1] = target: PvS1FL (full-length Plasmodium vivax subtilisin-like protease 1, Sub1, autoprocessed with bound prodomain) (UniProt E6Y8B9); assay: analytical ultracentrifugation, sedimentation equilibrium (Beckman Coulter XL-I, absorbance at 280 nm); settings: 20°C, 150 mM NaCl, 10 mM CaCl2, pH 5: 50 mM NaCit (sodium citrate), pH 8: 50 mM Tris
[2] = target: the molecule itself; assay: AUC; sedimentation equilibrium, pH 5 (50 mM NaCit pH 5, 150 mM NaCl, 10 mM CaCl2), 20°C, 2, 5 and 10 µM protein, 9,000, 13,000 and 16,000 rpm, single-species model

| Molecule | apparent molecular weight (single-species fit); oligomeric state ([1]; pH 5) | apparent molecular weight (single-species fit); oligomeric state ([1]; pH 8) | stoichiometry N [2] |
| --- | --- | --- | --- |
| PvS1FL (full-length Plasmodium vivax subtilisin-like protease 1, Sub1, autoprocessed with bound prodomain) | 135.8 ± 2.8 kDa (stable homodimer; theoretical monomer 67.71 kDa) | 67.9 ± 1.1 kDa (monomer; theoretical monomer 67.71 kDa) |  |
| B1 |  |  | 2 |
